In US5587468, “High affinity nucleic acid ligands to HIV integrase” (University Research Corporation):
Residue numbers refer to the chain shown, from its start.

Legend:
HIV-1 integrase [1] = biological target: T1, HIV-1 integrase (Human immunodeficiency virus 1 (BH10), UniProt P03366 P03366:1160-1447); test: competition; inhibits binding of con+/- U5 DNA, 180 mM NaCl; details: tags: gift of Agouron Pharmaceuticals; BH10 clone; stem-loops with GNRA tetraloop and putative pseudoknot (11-14 with 28-31)
HIV-1 integrase [2] = biological target: T1, HIV-1 integrase; test: FP filter; nitrocellulose filter; 250 mM NaCl, 10 mM MnCl2, pH 7.5, 37 C; details: tags: gift of Agouron Pharmaceuticals; BH10 clone; stem-loops with GNRA tetraloop and putative pseudoknot (11-14 with 28-31)
Description: (§1) Binding assays were done by adding 5 µl of HIV-1 integrase protein, at the appropriate concentrations (i.e., ranging from 2 ×10^-6 with 3 fold dilutions to 9 ×10^-9 for 250 mM NaCl and 0.5 ×10^-7 with 3 fold dilutions to 2 ×10^-10 for 50 mM NaCl), to 45 µl of binding buffer (50 mM Na-HEPES pH 7.5, 250 mM NaCl, 2 mM DTT, 10 mM MnCl_2, 5 mM CHAPS) on ice, then adding 50,000 cpm of kinased RNA (<200 fmoles) in a volume of 3 to 4 µl. This mix is incubated at 37° C. for 20 minutes. The reactions were then passed over nitrocellulose filters, which were pre-equilibrated in buffer, and washed with a 50 mM Tris-Cl pH 7.5 solution. Filters were dried and counted in cocktail. The proteins used in these experiments were frozen and thawed only once. Each binding curve consisted of seven points and each point is an average since experiments were done in triplicate.

HIV-1 integrase [3] = biological target: T1, HIV-1 integrase; test: FP filter; nitrocellulose filter; 50 mM NaCl; details: tags: gift of Agouron Pharmaceuticals; BH10 clone; stem-loops with GNRA tetraloop and putative pseudoknot (11-14 with 28-31)
Description: as §1

HIV-1 integrase [4] = biological target: T1, HIV-1 integrase; test: FP filter; deletion had no noticeable effect on binding; details: tags: gift of Agouron Pharmaceuticals; BH10 clone
HIV-1 integrase [5] = biological target: T1, HIV-1 integrase; test: FP filter; binding completely abolished; details: tags: gift of Agouron Pharmaceuticals; BH10 clone
HIV-1 integrase [6] = biological target: T1, HIV-1 integrase; test: FP filter; nitrocellulose filter; 250 mM NaCl; details: tags: gift of Agouron Pharmaceuticals; BH10 clone
Description: as §1

B1: P5 (ssRNA)
RNA: GGGAGCUCAGAAUAAACGCUCAACCAGUCUUGUGGCUUUGAAAGAGAGGAGUGUUCGACAUGAGGCCCGGAUCCGGC
In the case of B1, the IC50 (HIV-1 integrase [1]) is reported as 6 nM, the Kd (HIV-1 integrase [2]) is reported as 12 nM and the Kd (HIV-1 integrase [3]) is reported as 2 nM.

B2: P5 truncate lacking 1-6 and 64-77 (ssRNA)
RNA: UCAGAAUAAACGCUCAACCAGUCUUGUGGCUUUGAAAGAGAGGAGUGUUCGACAUGA
B2: binds (HIV-1 integrase [4]).

B3: P5 deletion of 1-14 (ssRNA)
RNA: AACGCUCAACCAGUCUUGUGGCUUUGAAAGAGAGGAGUGUUCGACAUGAGGCCCGGAUCCGGC
B3: no binding (HIV-1 integrase [5]).

B4: P5 deletion of 56-77 (ssRNA)
RNA: GGGAGCUCAGAAUAAACGCUCAACCAGUCUUGUGGCUUUGAAAGAGAGGAGUGUU
B4: no binding (HIV-1 integrase [5]).

B5: P23 (ssRNA)
RNA: B1 RNA with G32A, U37G, A41C, G46U, A50G, U52C
Work on B5 yielded a Kd (HIV-1 integrase [6]) of 25 nM.
